Measurements: article PMC4108507 (Journal of immunology (Baltimore, Md. : 1950), 2014)

Molecular target: HA-DHX15, full-length recombinant protein (murine, UniProt O35286 1-795)
Test: pull-down

Chain of HA-DHX15, full-length recombinant protein (O35286 whole entry): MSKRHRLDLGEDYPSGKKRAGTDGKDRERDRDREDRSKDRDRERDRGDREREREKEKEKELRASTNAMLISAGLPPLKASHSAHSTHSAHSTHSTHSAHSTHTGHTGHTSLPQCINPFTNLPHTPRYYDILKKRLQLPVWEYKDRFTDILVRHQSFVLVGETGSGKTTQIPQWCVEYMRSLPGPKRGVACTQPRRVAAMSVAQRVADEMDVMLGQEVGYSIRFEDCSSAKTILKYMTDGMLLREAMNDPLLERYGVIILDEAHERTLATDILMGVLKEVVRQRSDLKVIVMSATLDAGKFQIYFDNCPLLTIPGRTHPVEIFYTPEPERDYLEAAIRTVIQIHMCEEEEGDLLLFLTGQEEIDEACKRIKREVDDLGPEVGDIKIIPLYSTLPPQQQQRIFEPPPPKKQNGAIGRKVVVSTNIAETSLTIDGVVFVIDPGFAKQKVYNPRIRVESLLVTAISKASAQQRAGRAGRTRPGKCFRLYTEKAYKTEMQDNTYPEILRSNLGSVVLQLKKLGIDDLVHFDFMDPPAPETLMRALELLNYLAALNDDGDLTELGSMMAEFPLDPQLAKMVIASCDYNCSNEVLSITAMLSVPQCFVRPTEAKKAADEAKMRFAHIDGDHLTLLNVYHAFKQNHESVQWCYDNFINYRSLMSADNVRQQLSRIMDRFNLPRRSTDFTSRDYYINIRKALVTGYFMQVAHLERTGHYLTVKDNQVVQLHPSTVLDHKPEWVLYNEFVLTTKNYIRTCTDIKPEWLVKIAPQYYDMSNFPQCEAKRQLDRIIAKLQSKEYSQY

- binding result: binds
B1: Myc-MAVS, full-length recombinant protein (natural protein, murine, UniProt Q8VCF0 1-503, looked up)
chain: MTFAEDKTYKYIRDNHSKFCCVDVLEILPYLSCLTASDQDRLRASYRQIGNRDTLWGLFNNLQRRPGWVEVFIRALQICELPGLADQVTRVYQSYLPPGTSLRSLEPLQLPDFPAAVSGPSAFAPGHNIPDHGLRETPSCPKPVQDTQPPESPVENSEQLLQTNSGAVARMSGGSLIPSPNQQALSPQPSREHQEQEPELGGAHAANVASVPIATYGPVSPTVSFQPLPRTALRTNLLSGVTVSALSADTSLSSSSTGSAFAKGAGDQAKAATCFSTTLTNSVTTSSVPSPRLVPVKTMSSKLPLSSKSTAAMTSTVLTNTAPSKLPSNSVYAGTVPSRVPASVAKAPANTIPPERNSKQAKETPEGPATKVTTGGNQTGPNSSIRSLHSGPEMSKPGVLVSQLDEPFSACSVDLAISPSSSLVSEPNHGPEENEYSSFRIQVDESPSADLLGSPEPLATQQPQEEEEHCASSMPWAKWLGATSALLAVFLAVMLYRSRRLAQ
